Source: the RNAGym collection of RNA variant scans (doi:10.7554/elife.80360)

B1: CPEB3 Ribozyme (parent)
chain: GGGGGCCACAGCAGAAGCGUUCACGUCGCGGCCCCUGUCAGAUUCUGGUGAAUCUGCGAAUUCUGCUGU

Variants of: B1
Assay: self-cleavage, relative activity (ratio to wild type); higher = more cleavage; co-transcriptional

Variant | self-cleavage
C7G C22U | 0.128
C7A G31C | 0.159
C7A G31A | 0.499
C7G C34U | 0.325
C7G C34G | 0.0956
C7G C34A | 0.109
C7G C18G | 0.116
C7G C18U | 0.107
C6U G37A | 0.22
C6U G37U | 0.169
C6U G37C | 0.154
C7G C63G | 0.113
C7G C63A | 0.237
C7G C63U | 0.316
C7G U62C | 0.285
C7A U69G | 0.897
C7A U69A | 0.875
C7A A16U | 0.222
C7A C22G | 0.0999
C7A A60C | 0.152
C7A A60U | 0.225
C6U U21G | 0.329
C6U U21C | 0.827
C6U U67G | 0.995

Variant | self-cleavage
C7A U44G | 0.305
C7A U44C | 0.432
C7A G30C | 0.661
C7A G30U | 0.9
C7A G30A | 0.826
C7G A15C | 0.0463
C7G A15G | 0.248
C7A U62C | 0.269
C7A U62A | 0.275
C6U U69A | 1.05
C6U U69G | 1.04
C7A C54A | 0.318
C7A C54U | 0.614
C7A A59U | 0.157
C7A A59G | 0.469
C7A C57U | 0.172
C7A C57A | 0.173
C6U C34A | 0.426
C6U C34U | 0.944
C6U C32U | 0.826
C6U C32G | 0.246
C6U U49C | 1.02
C7A U26G | 0.274
C7A U26C | 0.357

Variant | self-cleavage
C6U G58C | 0.909
C6U G58A | 0.981
C7A G19U | 0.163
C7A G19C | 0.143
C6U U61G | 0.809
C6U U61A | 0.736
C6U U61C | 0.647
C6U G48A | 1.03
C6U G48C | 0.995
C7G G68A | 0.824
C7G G68U | 0.808
C7G U36C | 0.0551
C7G U36G | 0.147
C7A C24A | 0.161
C7A C24U | 0.192
C7A C24G | 0.0158
C7G G17A | 0.11
C7A C12A | 0.147
C7A C12G | 0.378
C7G C27U | 0.0215
C7G C27G | 0.112
C7A G56A | 0.34
C7A G56C | 0.243
C7G U53G | 0.147

Variant | self-cleavage
C7G U53C | 0.217
C7G U53A | 0.219
C6U U43A | 0.917
C7G G19U | 0.0728
C7G G19A | 0.0606
C7A G50U | 0.54
C7A G50A | 0.617
C7G A42G | 0.306
C7G A42C | 0.198
C7A G68U | 0.937
C7A G68A | 0.984
C7G A13G | 0.238
C7G A13U | 0.122
C7G U55C | 0.185
C7G U55A | 0.124
C7G U55G | 0.119
C7A C29G | 0.12
C7A C29U | 0.261
C7A U46G | 0.654
C7A U46C | 0.587
C6U C35A | 0.189
C7G U46C | 0.38
C7G U46A | 0.453
C7G A59G | 0.307

Variant | self-cleavage
C6U C24U | 0.709
C6U G47A | 1.01
C6U G47C | 0.996
C6U G47U | 1.02
C7G A40U | 0.161
C7G A40G | 0.376
C7A C35G | 0.156
C7A C35U | 0.222
C7A U61G | 0.378
C7A U61C | 0.232
C6U U38G | 0.12
C6U U38C | 0.929
C6U G11C | 0.828
C6U G11U | 0.876
C7A C45G | 0.421
C7G G50C | 0.294
C7G G50A | 0.456
C7G G50U | 0.465
C6U U26C | 0.893
C6U U26A | 0.833
C7A C33A | 0.119
C7A C33U | 0.489
C7A C33G | 0.226
C7G A51U | 0.34

Variant | self-cleavage
C7G A51G | 0.455
C7G A51C | 0.306
C6U U62A | 0.873
C6U U62G | 0.783
C6U U53A | 0.977
C6U U53C | 0.914
C6U U53G | 0.719
C7G G30U | 0.564
C7A A8U | 0.769
C7A A8G | 0.8
C7G C33A | 0.147
C7G C33G | 0.146
C6U U46A | 0.944
C6U U46C | 1
C6U U46G | 0.987
C7A U20A | 0.0917
C7A U20G | 0.127
C7A U20C | 0.211
C6U C27G | 0.199
C6U C27A | 0.369
C6U C39G | 0.899
C6U C39U | 0.955
C7A U38A | 0.191
C7A U38C | 0.221

Variant | self-cleavage
C7G A10C | 0.703
C7G A10U | 0.683
C7G A10G | 0.671
C7A G28U | 0.128
C7A G28A | 0.128
C7A G28C | 0.11
C7A U36G | 0.205
C7A U36C | 0.223
C7A C63U | 0.515
C7A C9U | 0.934
C7A C9G | 0.639
C7G A23C | 0.319
C7A G17C | 0.14
C7A G17A | 0.0679
C7A G17U | 0.126
C7A A13U | 0.274
C7A A13G | 0.598
C7A C39U | 0.348
C7A C39A | 0.186
C7A U55A | 0.333
C7A U55C | 0.208
C7A U55G | 0.194
C7A A10C | 0.76
